This note sets out measurements from the DeepSol protein solubility set.

The series is described as follows: soluble on expression in E. coli; label from the status in PepcDB or PDB records.
As for “MNPPDISVLIVSFNTRDLLRRCLASLRDQAGGTGIETIVVDNASRDGSADMVEAEFPDVRLIRSPVNLGFGNANNLAFTQSRGRYLVLLNSDACLAPGLLDAASKRMDACPDVGMAGGRLVGPEGGWQPSARMFPSLLNEFLVLSGLAHRYPKSRLFGRFDRTWADPSEEAGVDWVPGAFAILRRDLIDRIGFFDPRFFLYYEEVDLCRRIRAAGCKIMYWPELVITHLGGESAKTLSDMEFSSHASQLTLWRMRSQALYYRKWHGLALAWSAKTLEQLWHWLRALRHRRSAPAKAHDSEALIRLWNRAWKETEGGRVSPPQPWLEHHHHHH”, the “soluble on expression in E. coli” value is given as “not soluble”.

Regarding “MDQKSTTCLEALAKLSQQREHQTTPATLCSSEHFFANETIYSDATFLSTTEEAFISSPSSSTQGPKPGLKRVSTGPMTRILEGCQNDKPNSPELERVEEAEDNYSGTSSEEAFSQGIPYPHQVGGHGALSSFERGRVLKPAAKKEIDFYNFIYSDNLPSELEWLRTVTPKYFGQRKTQAKAKRILENQVTPFSQTSSVPVNTVLHIDRKDSERNIWKDQVGELVMDTNPWARACLLKELQKEDEVKSFIILEDLTCHLKKPCVLDCKMGTRHYDDDATEEKKKAHIEKATKTTSSSTGIRFTGMQVYKLPSHTFLFHDKYYGRQLKSHELKNELFEFFHNGVLLRVDIIEQFLSKLQWLYQHLENQHYFNFYSSSLLFVYEGDEMATCPISDVRMIDFAHTQRCVEEQQNDGYLFGLSNLIHLMKSLLEDERNEMR”, the “soluble on expression in E. coli” value is on record as “soluble”.

For the sequence “TPTDKHGGSDTRCPLMVKILDAVKGTPAGSVALKVSQKTADGGWTQIATGVTDATGEIHNLITEQQFPAGVYRVEFDTKAYWTNQGSTPFHEVAEVVFDAHPEGHRHYTLALLLSPFSYTTTAVVSSVHE”, the “soluble on expression in E. coli” value is recorded as “soluble”.

On to “PNIADKGSVFYHFSATSFDSVDGTRHYRVWTAVPNTTAPASGYPILYMLDGNAVMDRLDDELLKQLSEKTPPVIVAVGYQTNLPFDLNSRAYDYTPAAESRKTDLHSGRFSRKSGGSNNFRQLLETRIAPKVEQGLNIDRQRRGLWGHSYGGLFVLDSWLSSSYFRSYYSASPSLGRGYDALLSRVTAVEPLQFCTKHLAIMEGSATQGDNRETHAVGVLSKIHTTLTILKDKGVNAVFWDFPNLGHGPMFNASFRQALLDISGENANYTAGCHELSH”, for which the “soluble on expression in E. coli” value is “soluble”.

With “MWHGMGDCCCNPLSMGSVKKLFEEQIPGVYVHSLQLGSSITKDIEHGFYANTNELVYMACIKIKNDPELKNGYNAIGFSQGAQFLRAVAQRCPNPPMKNLVSVGGQHQGVFGAPYCIGDNIMCNGVRRLIDLGAYLPFVQKRVVQAQYWHDPNQVEEYKKRSIFLADINNENNNNPTYKRNLLSLKNLVLVKFNQDHMVVPKDSSWFGFYKDGDIDTILPMNETDLYKEDRIGLKKLHESGRIHFMDVDGDHLQIPRSVLVNDIIKKYFM”, the “soluble on expression in E. coli” value is “not soluble”.

Regarding “MSLIDARLATEIVVRTVEVMPFDVNVMDAHGVILASSDAARVGEIHAGAQLALARARAVEIDDAMAANLSGARPGINLPLSVRGKVCGVIGVTGEPDAVRGFGELLRVTAELILEREQLTVELRRNARHREEFVLQLLRRTAAAAELEAWADRLGIDMRLAHAAIVCRLSGVDTEPEAGVGQIEAMQSQLAQEWPQLLSAKTSYRELVMFDAVDARAGRDGVLATHAGKRLAALEDTLRKVATQPFSLALGIALDGIDGFERSYQCALATLRVGAARTPQRAAYSYYDFVLPVLLSALSQGWQARQLRLPLTRLLARERRSGALLDTLKAWYAHDGHPSATAQALGIHRNTLDYRLQQIRDATGLDLGAIDDRLWLYIALQTMAGEGHHHHHH”, the “soluble on expression in E. coli” value was “soluble”.

Consider “MVKQLKFSEDARQAMLRGVDQLANAVKVTIGPKGRNVVLDKEFTAPLITNDGVTIAKEIELEDPYENMGAKLVQEVANKTNEIAGDGTTTATVLAQAMIQEGLKNVTSGANPVGLRQGIDKAVKVAVEALHENSQKVENKNEIAQVGAISAADEEIGRYISEAMEKVGNDGVITIEESNGLNTELEVVEGMQFDRGYQSPYMVTDSDKMVAELERPYILVTDKKISSFQDILPLLEQVVQSNRPILIVADEVEGDALTNIVLNRMRGTFTAVAVKAPGFGDRRKAMLEDLAILTGAQVITDDLGLDLKDASIDMLGTASKVEVTKDNTTVVDGDGDENSIDARVSQLKSQIEETESDFDREKLQERLAKLAGGVAVIKVGAASETELKERKLRIEDALNSTRAAVEEGIVAGGGTALVNVYQKVSEIEAEGDIETGVNIVLKALTAPVRQIAENAGLEGSVIVERLKNAEPGVGFNAATNEWVNMLEEGIVDPTKVTRSALQHAASVAAMFLTTEAVVASIPEKNNDQPNMGGMPGMM”, for which the “soluble on expression in E. coli” value is listed as “not soluble”.

On to “MGHHHHHHSHMSGGEVVCSGWLRKSPPEKKLKRYAWKRRWFVLRSGRLTGDPDVLEYYKNDHAKKPIRIIDLNLCQQVDAGLTFNKKEFENSYIFDINTIDRIFYLVADSEEEMNKWVRCICDICGFNPTEEDPVK”, for which the “soluble on expression in E. coli” value was “not soluble”.

In the case of “MAYDIERYLDIRGAGDPTYGPTGELAFTLGTTGTAQVWALGAPGAWPTQLTFHDERVQWASFSPTREELAYGMDTGGDEFTQLHRVSGDGSEDVQLTAFPDAKHDWGGWSHDGDRIAYTANRRDASRFDVYVQGRDEAGANADCVRVGDTFDLPSVVGWSPSDDRLLVVDTHSNFDQDVAVLDVDTGEITRATAGLDADTRFSWVAWAPDGGGVYVTTDHDADTRYLGLLDPETGAISRVADGGDWPIEAVVTAHDAGRLAYVRNRDGYSELTIADAAGTTLTEQPTPELPDGVIRGLSWGPDGDTLAVVVSAATENPNVFVVDVATGAATQWTNAATAGIPKSTFREPELVRYETFDGREIPALFTRPDGDGPHPVIVDFHGGPEGQRRPSFLSLRQYFVDNGYAVFEPNVRGSSGYGATYMNLDNVRNRMDAVADGKAGVEWLTARTDIDADRVVAYGGSYGGFMVLASLTEYPELWAAGVDIVGIANFVTFLENTGDWRREHRESEYGSLDADREFLESISPTNNADRIRAPLLVLHGANDPRVPVGEAERIVEQASAHVPVEKHVFDDEGHGFSKRANKQAAYRAVVDFLDDHALEHHHHHH”, the “soluble on expression in E. coli” value is reported as “not soluble”.

As to “PSPSTEQSAKKVRKKAENAHNTPLLVLYGSNMGTAEGTARDLADIAMSKGFAPQVATLDSHAGNLPREGAVLIVTASYNGHPPDNAKQFVDWLDQASADEVKGVRYSVFGCGDKNWATTYQKVPAFIDETLAAKGAENIADRGEADASDDFEGTYEEWREHMWSDVAAYFNLDIENSEDNKSTLSLQFVDS”, the “soluble on expression in E. coli” value is recorded as “soluble”.

In the case of “MSLNNVIFSQKLYDTAQMIVDGCMGDADPACQTACPMHTDVKQYVRMAGEGNFQGALDLIRSKLFLPQTLGRICAHPCEASCRRNTEFGQPISVAGIKRFVAEKMDNQDHWDLNIAPLTNKHIAIVGAGPAGAQAAIELRRQGHEVTIYEKLDVYGGMMRVGIPEYRLPRDVIDFEYSYLAMLGIKTQFGVEIGKDISFDTLRSEHDAVILAHGAHVGSIIPLPGHDNDGVFSAVEYLKEISETRQFPRACKRVMVIGGGDVAMDCARSSWRIGASDVYQCSLESLESLPASQIEIDESLEEGVEFNAGWGPVAIEHENGKVTGITIKKVLSIFDEQGNFAPQYSEESKTISVDTVVFATGQIVADITDGALEQTRGGRYVVDKQTLASSLEDVFVAGDACGGNIVIEAMALGRKAAMSVERFLTARPLTEDREGHHHHHH”, the “soluble on expression in E. coli” value is given as “soluble”.

As for “SNAGQLCCLREDGERCGRAAGNASFSKRIQKSISQKKVKIELDKSARHLYICDYHKNLIQSVRNRRKRKGS”, the “soluble on expression in E. coli” value is “soluble”.

Turning to “MQKIVIVANGAPYGSESLFNSLRLAIALREQESNLDLRLFLMSDAVTAGLRGQKPGEGYNIQQMLEILTAQNVPVKLCKTCTDGRGISTLPLIDGVEIGTLVELAQWTLSADKVLTF”, the “soluble on expression in E. coli” value is listed as “soluble”.

As to “SLTMNPLLTAEWGNVSEEKVEVVVDAGLGKALLVPASVESLSMQFNGVEVASLEEFDYSPTKSNARIVIGIDPNELVRALERYFESNQHGELSVEAKLGLFGLLHSTLTFSREFQQDILGQMDFKAESKPIFGGLLYTPSVEGTKVVWLGAENGVWNLKTYATLKNPNSFPIPVSNLEFEVSVNGIKVGVGNISQGVTIPAGGVATVPIDTEIYSEYLPTVLVAHIKNGEESSVEVNFYITVSSGGKSARINLTSERIVIQTDIMASINDALSGVSPRE”, the “soluble on expression in E. coli” value is recorded as “soluble”.

Take “MFKIGSVLKQIRQELNYHQIDLYSGIMSKSVYIKVEADSRPISVEELSKFSERLGVNFFEILNRAGMNTKSVNETGKEKLLISKIFTNPDLFDKNFQRIEPKRLTSLQYFSIYLGYISIAHHYNIEVPTFNKTITSDLKHLYDKRTTFFGIDCEIVSNLLNVLPYEEVSSIIKPMYPIVDSFGKDYDLTIQTVLKNALTISIMNRNLKEAQYYINQFEHLKTIKNISINGYYDLEINYLKQIYQFLTDKNIDSYLNAVNIINIFKIIGKEDIHRSLVEELTKISAKEKFTPPKEVTMYYENYVAIENNPIPEIKEQS”: the “soluble on expression in E. coli” value is “soluble”.

As for “MKPPFEQALGIIRQLKRHGYEAYFVGGAVRDLLIGRPIGDVDIATSALPEEVMRLFPKTIDVGSKHGTVVVVHEGTAYEVTTFRTDGDYEDHRRPESVTFVRSLEEDLKRRDFTMNAIAMDERGTIIDPFGGQEAIERRLICTVGAADERFREDALRMMRAVRFVSQLGFALAEDTKSAIVQNAPLMAHISVERMTMEMEKLLAGPFVAEALPLLADTGLFAYLPGLAAKEQLLRSAAAFRWPWLTKREERWALLCRALDVKDIRPFLRAWKLPNKVIDEAGAILAALDDVPRPEAWTNEQLFSAGLERALSVEAVRAALCGAPSEPHHEELRRRFAALPIKTKGELAVNGKDVIRWAGKPAGPWVKETLDAIWRAVVSSEVENEKERIYAWLMERNRTHEKNC”, the “soluble on expression in E. coli” value was “not soluble”.

Turning to “SSRFSITYKHDFYGGVEGEVTGGSALLCCPQEDIKSFLSEPVYSRLCASAWALTIECPSDPRTPSGTPGPLGTVPWRWGSLGMGGPLLPTAPTPRERERRGGQPAQRWSAEEGQEGSADGEAEATQELILAVVQEGAEGQCQGQGRKLLLQRGAHDPVTVHRAFKKEVGLGQVQLIPKGGTGVLHPGAGLKLHTHLQLVTGFVVIRRMHACLAQRYCSQPVVQCVFPS”, the “soluble on expression in E. coli” value is “soluble”.

On to “SNAMKKTLILGATPETNRYAYLAAERLKSHGHEFIPVGRKKGEVLGKTIINERPVIEGVDTVTLYINPQNQLSEYNYILSLKPKRVIFNPGTENEELEEILSENGIEPVIGCTLVMLSAGTF”, for which the “soluble on expression in E. coli” value was “soluble”.

For the sequence “KVKVPYLRLSLPELHIDMDFLKKTVDFSSISALQQTVLYIGRLLVQSGINTLGVDAVAAFNAVSIIDSYVLAPGDSLAASITTFTAQNKGGKQYHRIPKG”, the “soluble on expression in E. coli” value is recorded as “not soluble”.

Turning to “MGSDKIHHHHHHENLYFQGMRYLSKDILEEVITQRPSDSYKSNFGRVVLIGGNRQYGGAIIMSTEACINSGAGLTTVITDVKNHGPLHARCPEAMVVGFEETVLLTNVVEQADVILIGPGLGLDATAQQILKMVLAQHQKQQWLIIDGSAITLFSQGNFSLTYPEKVVFTPHQMEWQRLSHLPIEQQTLANNQRQQAKLGSTIVLKSHRTTIFHAGEPFQNTGGNPGMATGGTGDTLAGIIAGFLAQFKPTIETIAGAVYLHSLIGDDLAKTDYVVLPTKISQALPTYMKKYAQPHTAPDSELLEQKRSR”, the “soluble on expression in E. coli” value is “soluble”.

With “MTTLKVKQLANKKGLNILEDSIEINESGVDFQVAHVTEQNGDKWILRIPRRPESMRHALREKEALEIMKKHAAFQVPNWSIFSEELIAYKQLSGFPAATIDIEQQKYVWNFNEKNVPTEYYISLGKVLANVHSLSQQKFNNIGVEILTANELRTSMKQRMNRVKEQYHINQNLWDRWQAWLAEDSFWPSHVGVKHGDIHPGHILIDKKNNVTGLIDWTEVGIGDVSIDFTSHYLLFGKDGLTKLIHSYDNAGGKTWSRMDEHIIELLTTSSITVAEYAQVSGLKDMHEAAIHMLATEC”, the “soluble on expression in E. coli” value is “not soluble”.
